The numbers were not newly measured in paper doi:10.1101/2022.07.01.498456, which cites them from elsewhere.

By pKa is commonly meant the negative logarithm of the acid dissociation constant.

In data set [1] the target is Asp52 (UniProt position 70, TDGSTDYGILQ). Briefly: other. The following applies: native HEWL, ligand-free (inferred; not explicitly stated).
Data set [2] deals with Glu35 (UniProt position 53, CAAKFESNFNT). Briefly: other. As to conditions: native HEWL, ligand-free (inferred; not explicitly stated).

Turning to “Hen egg-white lysozyme (lysozyme C) (Gallus gallus)”, the pKa is 3.6 in data set [1] and 6.2 in data set [2].
